Data from US20140287419A1, “Compositions Having Dicamba Decarboxylase Activity and Methods of Use” (priority 2013, published 2014).
Substitutions are numbered along the chain they refer to.

B1: SEQ ID NO:56: hypothetical protein EAE_19025, Enterobacter aerogenes KCTC 2190 (protein)
chain: MAKIICLEEHYLDSELGRACMPVALEQAPFLGDWGKTVADGHNPDRSRPQIEKNALINAKGADLGSRRLRDMDEAGITLQILSVGGFPQLAPEDEAVTLNTAANDRLAEAVRNHPDRFAAFATLPWAQPKDAENELVRAVEKLGFKGALLNGRPSSCFLDHPDYDSLLSRFNKLNVPLYLHPGLPLKSVQQAYFTGFSAEVNARLSMFGWGWHHEAGIHLLRLMLSGAFDKYPNMQVISGHWGEMLPFWLQRLDDSLPLAATGLSRTLTRTFQEHVYVTPSGMLTLPHFKFIYELMGAERILFSVDYPYQTLDGVKTFIDSLPVNKAEKEAIAFRNAERLLGITA
modifications: Enterobacter aerogenes
B2: SEQ ID NO:79: hypothetical protein PTT_18638, Pyrenophora teres f. teres 0-1 (protein)
chain: MATTTTPSTLIATLESHLTPTLAFTSPTTSPTQPALHLIPPTTLTKLRNLGPGRVKDMHMLGHSRQIISHIPVAAPPQICSRFNDAIHAATMTNTAKFSVLAVLPTDGMEAAKELARCVSKYRFVGGVIGLNRGLRINGEGWEELWGLAERLRIPIMFREMWPLAFEIVDYQHHLPYSALGPILTQLHTSHTSSPLPLVRLYLSSVFDHYPSLRLVLAHPGSLPSLVPRIESLINSIPATDKPKRSFLDVWQHNIYLTTADAQDMSSLRALLEQIPVDRVLYASNYPFEERGNELMNELRESEFLTNIEWERVAWVNAETLFNLKEAGTKEARQLTTIPSSRS
modifications: Pyrenophora teres
B3: SEQ ID NO:57: amidohydrolase, Collimonas fungivorans Ter331 (protein)
chain: MAKLICVEEHVLDPAVGAATQSLVRAEAPYLPDWGSRVLDGRHVADRSRPHVIAPSESARKALEMGEPRLADMDAASIDMQVLSYGGFPQLLPAAQAIDLNRAANDKLALAAQAHPARFAGFATLPWQAPEAAARELERAVKQLGLKGALINGRPGDTFLDDARYAPILAAFDELKVPLYVHPGLPLPAVQAPYYGGFERELSARLAMFAWGWHNEAGIQVVRMLLAGVFDRHPRLQLISGHWGEMVPFFLQRLEDSIPQEASGLQRPIVQTYREHVYISPSGMFTLPHFQFIHALMGAQRILYSIDYPYQSLDGARAFIERLPISDTDKALIAHRNAERLLHL
modifications: Collimonas fungivorans
B4: SEQ ID NO:2: o-pyrocatechuate decarboxylase, Serratia sp. AS12 (protein, listed as Serratia sp.)
chain: MAKIICLEEHTLDKALVMASMPAALEQAPFLSDWGKTVTDGNLPDRSRPQIEKNDLINIKGADIGRGRLDDMDVAGITMQVLSVGGFPHLISAAEGVDLNRAANDRLADAVNAHPDRFAAFATLPWAQPDSAEKELERAVKELGFKGALLNGRPSTHFLDHPDYDGLLARFNALGVPLYLHPGLPVRSVQQAYYGGFSDEVTARLSMFGWGWHHEAGIHLLRLILSGAFDKYPNLQVISGHWGEMLPFWLQRLDDSLPQAATGLRRTIAQTFKEQVYVTPSGMLTLPHFQFIYALLGAERIIFSVDYPYQTLDGVKAFIQSLPVPEEAKEAIAFRNAERLLGLTS
B5: SEQ ID NO:55: o-pyrocatechuate decarboxylase, Serratia sp. AS12 (protein, listed as Serratia sp.)
chain: B4 chain
B6: SEQ ID NO:53: amidohydrolase, Granulicella tundricola MP5ACTX9 (protein, listed as Granulicella tundricola)
chain: MARTITLEEHFVTDSFLRATGAYDKPAPPWLAQLQPKLLDLGDGRIAAMDEAGIDLQVLSLAALGFDALDAATATPLVHDINDELAAAVRANPTRLAAFASLALKDPQSAARELERAIQKLGFRGVLLDGTTDGLFLDDPRFTPVFEAAVALNVPIYLHPAPPPESVFDTYFTGLPEGVGQMLSIAGWGWHAETALHTLRLITNGVFDRYPTLQLIIGHMGEMLPMALARTSKALSHAARLRQPVAAYFQSNIHLTTSGYFTQPPLRCALDVVGIDRLMFSIDYPFSANTLGRDYLTELEQTLTPEDLAKLIHRNAESLLNLS
B7: SEQ ID NO:52: putative decarboxylase, Streptomyces sp. SA3_actG (protein, listed as Streptomyces sp.)
chain: MAKIIALEEHFSDPAVAKAGAARAQALSPGFAASYSPASGLPYSPSPEVLENLAEKRLADMDAGGITMQVLSGLSAQTVPADVAPALVAGSNDKAAAAVRAHPDRFAAFAALPTAAPEAAVAELDRSVNELGFVGTLIMGRTEGEFLDAPRFEPILARAAALKVPVFLHPGVPPREITDSNYAAGLPTGIGTRLQTAAWGWHQETAVHFLHLVHSGVLDRYPDLQFILGHWGETIPFYLDRVDEALPQRATGLDRSFHEYFRENVYLAPSGMWSQAQLRFCLETFPLERIVFAVDYPFIGNEGAVPFLEKAELPEADKRKIAHENAERLLGL
B8: SEQ ID NO:54: putative decarboxylase, Streptomyces sp. Tu6071 (protein, listed as Streptomyces sp.)
chain: B7 chain with S75G, V128I, D223G, T234M, F285V
B9: SEQ ID NO:58: amidohydrolase 2, Mycobacterium colombiense CECT 3035 (protein)
chain: MARVIALEEHYATTEFLRGPGTWLASRPGIVEPAGDLGDGRIAAMDQAGVDLAVLSLAAPGVEQLDPDDAVRLARDCNDQLAAAVRRYPDRLAGFATVPTSAPDRAADELERAVRGLGFPGAVINGHSRGRYLDDPFFEPVLARAAELQAPIYLHPTIPPAGVIESSYAGFAEPVTFALATVGWGWHINTATHALRMILGGVFDRHPSLQMIIGHMGEATSFMLPRFDATLKPELTGLNHPVSSYLRENFHYTFANFNDHATYANLVAQVGIERVAFSADYPFGSMVDARAFLDGLPLSDDERAAISHRNAEKLLGL
modifications: Mycobacterium colombiense
B10: SEQ ID NO:50: hypothetical protein SSMG_03140, Streptomyces sp. AA4 (protein, listed as Streptomyces sp.)
chain: MARIVTLEEHWTDPAVTAAGMPNLLDHVPGYAAAFDPDTGMPYPRHPELLEDLGAARIADMDRHGITTQVLSLVNTFLPADVAPRLTAAANDAMAAAVEAFPGRFAAFATLPTAVPGAAADELRRCVGELGFVGTMIMGRTDGEFLDQPRFDPILRAASDLSVPVYLHPAPPPVAVSEASYAGGLSPAVSAAFRLAAWGWHQETAVHLLHLVLAGVLDRYPGLQFVLGHWGEFIPFYLDRLDESMPRRMTGLDRTFREYFRDNVFITPSGMFSQAQLRYCADTVGTDRIIHSVDFPMLGNEGAVSFLTDSHLSREDQEKIAHGNADALLGLG
B11: SEQ ID NO:51: TIM-barrel fold metal-dependent hydrolase, Mycobacterium gilvum Spyr1 (protein, listed as Mycobacterium gilvum)
chain: MARVIAIEEHYAHPGLQPAEALANLRKHPQLARIQDKLEDLGAGRLADMDAAGIDMQVLSHTVPGAEALPAAQAVDVVRQTNDDLAEVIAAHPDRFAGFAALPMRDPQAAATELQRAVGTLGFCGAMINGLIEGRFLDHPDFTPLLSTAADLGVPLYLHPSFPPPQVAQIYFGGLPPVLADLLATAGWGWHAETALHVLRLISTGVFDRLPELRVIVGHMGEMIPFALARIDTVLSPMTELRQPVAQYFQTNVWFTTSGYTTFPPLQCALSTVGIDRLIFSVDYPYTDNASARALLDTAPISPVDREKLAHATVEALLRV
B12: SEQ ID NO:87: amidohydrolase, Novosphingobium sp. PP1Y (protein, listed as Novosphingobium sp.)
chain: MASDIATAADLQTGGRQGYLRIATEEAFATRDQIDVYLRMVRDGTADRGMTSLWGFYAQSPSARATQIIERLLDLGEQRLADMDAAGIDKAVLALTSPGVQPLLDMEEARRIAGNANDRLAERCAAHPDRFIGMTAVAPQDPQWSAREILRGATQLGFKGVQINSHTQGRYLDEPFFDPIFRALGDVGQPLYIHPGTPPDSMIGPLLDAGLDGAIYGFGVETGMHLLRLITAGIFDRYPDLQIMVGHMGEALPYWLYRLDYMHQAGIRSQRYERMRPLKRTIAGYFRSNVLVTCSGMAWEPAIQFARQVMGEDRVMYAMDYPYQYEADEVRALDVMDLSPESKRKFFQTNAERWFDL
B13: SEQ ID NO:81: 2-amino-3-carboxymuconate-6-semialdehyde decarboxylase, Verticillium dahliae VdLs.17 (protein, listed as Verticillium dahliae)
chain: MAASTKPKVVDIHTHMYPPSYIDILTSRTAIPVVRTFPQAADPRLILLDAEQQALDAALQDPTAKPPGRPLTSHYASLDQKIHFMDTHSIDISVVSLANPWLDFIEPKEAAATARSVNDEFEAMCASQPGRLFFFAALPLTAPLPALLEAVRHVAELEHCRGVILGTSGLGSGLDDPELVPVLEAVAAAALTVFLHPHYGLPNDVWGPRASAEYGHVLPLALGFPMETTIAVARMYLAGVFDRVPALRMLLAHSGGTLPFLAGRIESCILHDGQLVAEGKVGAARRTIWDVLREQVYLDAVIYSEIGLKAAIAASGGADRLMFGTDHPFFPPLGTDEQAKKESRINAGGSRPMITGNAMINGHGGLCNHITQSDYQDVVL

Assay: 14C assay with IPTG-induced recombinant E. coli cells (14CO2 capture from [14C]-carboxyl-labeled dicamba)
Settings: E. coli cell assay, 108 sequences tested

| Molecule | decarboxylation activity of dicamba |
| --- | --- |
| B1 | showed decarboxylation activity of dicamba |
| B2 | showed decarboxylation activity of dicamba |
| B3 | showed decarboxylation activity of dicamba |
| B4 | showed decarboxylation activity of dicamba |
| B5 | showed decarboxylation activity of dicamba |
| B6 | showed decarboxylation activity of dicamba |
| B7 | showed decarboxylation activity of dicamba |
| B8 | showed decarboxylation activity of dicamba |
| B9 | showed decarboxylation activity of dicamba |
| B10 | showed decarboxylation activity of dicamba |
| B11 | showed decarboxylation activity of dicamba |
| B12 | showed decarboxylation activity of dicamba |
| B13 | showed decarboxylation activity of dicamba |
